Drawing on patent publication US20040203016, this text covers activity for one substance.

Read-outs that look alike come from different tables or passages of the source.

Data set [1] has as its system R recombinase. The data set is described as follows: cell_activity. The settings on record: in vivo resolution after 4 h in LB+IPTG (3% after 1 h).
The subject of data set [2] is R recombinase. Conditions: in vitro resolution between RS sites, recombinants.

As to RS site, the activity in the data set with R recombinase [1] stood at 15%; with R recombinase [2] it was 30%.
